Results on 7 molecules are retold here after CN107793480A (SHANGHAI JIBEI BIOLOGICAL TECH CO LTD, dated 2018).

Assay [1] deals with CD19 (antigen of the phage competition ELISA) (human) (UniProt P15391). Description: phage competition ELISA on CD19; competitor 3ug/ml FMC63mIgG2a, anti-mouse Fc detection. A general note: ELISA stands for enzyme-linked immunosorbent assay.
The target of the next assay is T1, CD19-His (human, UniProt P15391 20-291).
T1 construct: Amine-coupled to AR2G biosensors for BLI; also called CD19-His抗原; not shown: His tag
T1 sequence (looked up): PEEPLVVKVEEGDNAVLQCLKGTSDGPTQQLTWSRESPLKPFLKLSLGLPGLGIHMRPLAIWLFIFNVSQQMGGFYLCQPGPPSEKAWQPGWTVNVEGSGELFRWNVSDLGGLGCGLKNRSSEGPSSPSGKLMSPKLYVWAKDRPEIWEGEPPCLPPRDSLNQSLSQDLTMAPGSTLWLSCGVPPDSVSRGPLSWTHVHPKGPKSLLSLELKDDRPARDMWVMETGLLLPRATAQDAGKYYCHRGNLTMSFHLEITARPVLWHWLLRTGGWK
As to the kind of experiment: BLI (ForteBio Octet), CD19-His amine-coupled to AR2G sensor, scFv-hIgG1 in solution.

Assay [2] has as its target T2, CD19 on Raji cells (human, UniProt P15391 20-556).
T2 construct: whole, on cells; also called Raji细胞(CD19+)
T2 sequence (looked up): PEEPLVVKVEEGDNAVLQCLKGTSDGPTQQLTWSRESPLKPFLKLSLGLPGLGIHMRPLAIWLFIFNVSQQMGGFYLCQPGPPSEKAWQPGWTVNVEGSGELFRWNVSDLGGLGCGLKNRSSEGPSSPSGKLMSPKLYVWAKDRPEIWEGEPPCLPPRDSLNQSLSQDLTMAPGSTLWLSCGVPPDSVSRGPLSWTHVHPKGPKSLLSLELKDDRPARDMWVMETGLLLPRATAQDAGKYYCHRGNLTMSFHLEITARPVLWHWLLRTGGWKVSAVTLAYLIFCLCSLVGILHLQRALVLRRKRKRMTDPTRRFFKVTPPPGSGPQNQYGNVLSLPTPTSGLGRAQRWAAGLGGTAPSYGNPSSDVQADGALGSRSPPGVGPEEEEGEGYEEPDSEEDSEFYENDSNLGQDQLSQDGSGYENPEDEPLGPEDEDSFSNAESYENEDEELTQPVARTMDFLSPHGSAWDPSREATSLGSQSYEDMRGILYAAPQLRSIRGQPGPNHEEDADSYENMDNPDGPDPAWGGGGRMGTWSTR
As to the kind of experiment: flow cytometry on Raji cells, anti-human IgG Fc-PE, MFI against concentration. (In general: Flow cytometry measures light scatter and fluorescence of single cells or particles in a stream.)

Assay [3] concerns the target T2, CD19 on Raji cells. Description: flow cytometry on Raji cells, scFv-hIgG1, all four in one experiment.

The koff is the first-order rate constant of dissociation. The term EC50 denotes the concentration that produces a half-maximal response.

“NC (negative control in the phage ELISAs)”: the Emax(最大抑制率) in assay [1] came to 19%.
The molecule “NC (negative control in the scFv-hIgG1 BLI table)” came in with a Response with CD19-His of 0.09.

B1: 4B10-hIgG1 (Fc fusion)
chain: EVKLQESGPGLVAPSQSLSVTCTVSGFSLEDYGVSWIRQPPRKGLEWLGVIWGSETTYYNSALKSRLTIIKDNSKSQVFLKMNSLQTDDTAIYYCAKHYYYGGSYAMDYWGQGTSVTVSSGGGGSGGGGSGGGGSDIQMTQTTSSLSASLGDRVTISCRASQDISKYLNWYQQKPDGTVKLLIYHTSRLHSGVPSRFSGSGSGTDYSLTISNLEQEDIATYFCQQGNTLPYTFGGGTKLEIT
notes: Secreted scFv-hIgG1Fc fusion from 293 cells, protein A purified; Junction between scFv and Fc not described; also called 4B10 scFv-hIgG1Fc融合蛋白; not shown: human IgG1 Fc (hIgG1Fc) from vector pGCIgGH1
As to B1, in the assay with CD19-His, the Response worked out at 0.35 and the koff was determined as 0.000895 s⁻¹. This molecule returned an EC50 with CD19 on Raji cells [2] of 0.16 µg/mL.

B2: 8A10-hIgG1 (Fc fusion)
chain: EVKLQESGPGLVAPSQSLSVTCTVSGVSLPDYGVSWIRQPPRKGPEWLGVIWGSETTYYNSALKSRLTIIKDNSKSQVFLKMNSLQTDDTAIYYCAKHYYYGGSYAMDYWGQGTSVTVSSGGGGSGGGGSGGGGSDIQMTQTTSSLSASLGDRVTISCRASQDISKYLNWYQQKPDGTVKLLIYHTSRLHSGVPSRFSGSGSGTDYSLTISNLEQEDIATYFCQQGKTFPLTFGGGTKLEIT
notes: Secreted scFv-hIgG1Fc fusion from 293 cells, protein A purified; also called 8A10 scFv-hIgG1Fc融合蛋白; not shown: human IgG1 Fc (hIgG1Fc) from vector pGCIgGH1
In the assay with CD19-His, B2 had a Response of 0.418 and a koff of 0.000913 s⁻¹. For the same molecule, in the assay with CD19 on Raji cells [2], the EC50 worked out at 0.13 µg/mL.

B3: C21-hIgG1 (Fc fusion)
chain: EVKLQESGPGLVAPSQSLSVTCTVSGFSLEDYGVSWIRQPPRKGLEWLGVIWGSETTYYNSALKSRLTIIKDNSKSQVFLKMNSLQTDDTAIYYCAKHYYYGGSYAMDYWGQGTSVTVSSGGGGSGGGGSGGGGSDIQMTQTTSSLSASLGDRVTISCRASQDISKYLNWYQQKPDGTVKLLIYHTSRLHSGVPSRFSGSGSGTDYSLTISNLEQEDIATYFCQQGKTFPLTFGGGTKLEIT
notes: also called 4B10&8A10组合突变; not shown: human IgG1 Fc (hIgG1Fc) from vector pGCIgGH1
In the case of B3, the EC50 was determined as 0.09 µg/mL in the assay with CD19 on Raji cells [2] and 0.23 µg/mL with CD19 on Raji cells [3].

B4: 7E11-hIgG1 (Fc fusion)
chain: EIVMTQSPATLSLSPGERATLSCRASQDISKYLNWYQQKPGQAPRLLIYHTSRLHSGIPARFSGSGSGTDYTLTISSLQPEDFAVYFCQQGKTFPLTFGQGTKLEIKGGGGSGGGGSGGGGSQVQLQESGPGLVKPSETLSLTCTVSGFSLEDYGVSWIRQPPGKGLEWIGVIWGSETTYYNSSLKSRVTISKDNSKNQVSLKLSSVTAADTAVYYCAKHYYYGGSYAMDYWGQGTLVTVSS
notes: not shown: human IgG1 Fc (hIgG1Fc) from vector pGCIgGH1
B4 had an EC50 with CD19 on Raji cells [3] of 0.36 µg/mL.

B5: C2146-hIgG1 (Fc fusion)
chain: EIVMTQSPATLSLSPGERATLSCRASQDISKYLNWYQQKPGQAPRLLIYHTSRLHSGIPARFSGSGSGTDYTLTISSLQPEDFAVYFCQQGNTLPYTFGQGTKLEIKGGGGSGGGGSGGGGSQVQLQESGPGLVKPSETLSLTCTVSGVSLPDYGVSWIRQPPGKGLEWIGVIWGSETTYYNSSLKSRVTISKDNSKNQVSLKLSSVTAADTAVYYCAKHYYYGGSYAMDYWGQGTLVTVSS
notes: also called C2146 scFv-hIgG1; not shown: human IgG1 Fc (hIgG1Fc) from vector pGCIgGH1
In the assay with CD19 on Raji cells [3], B5 had an EC50 of 2.63 µg/mL.
